In patent publication US12509709B2, “Methods for making L-glufosinate” (BASF SE, priority 2016, dated 2025):

Experiments:
weeds = settings: EP 0030424; cited from earlier work
[1] = Conversion of PPO to L-glufosinate with lysine as amine donor; assay type: biochemical; settings: over 20 hours; 0.4 mg/mL gabT, 25 mM PPO, 75 mM L-Lysine, pH 8.0, 30° C.
Procedure: Lysine can be used as an amine donor for conversion of PPO to L-glufosinate with the use of an appropriate TA. PPO was converted to L-glufosinate in a reaction with the following components: • 0.4 mg/mL gabT (purified as in Example 3) • 25 mM PPO (pHed to 8 w/NaOH) • 0.2 mM pyridoxal phosphate • 75 mM L-Lysine dihydrochloride (pHed to 8 w/NaOH) • 100 mM Kphos buffer pH 8.0
The reaction was incubated at 30° C. for 20 hours with shaking (250 rpm). L-glufosinate was formed at a rate of 0.4 mM/hr over the 20 hours.

[2] = Conversion of PPO to L-glufosinate with isopropylamine as amine donor; assay type: biochemical; settings: 0.25 mg/mL TA, 25 mM PPO, 250 mM isopropylamine, pH 8.0, 25 to 30° C.
Procedure: Isopropylamine can be used as an amine donor for conversion of PPO to L-glufosinate with the use of an appropriate TA. PPO was converted to L-glufosinate in a reaction with the following components: • 0.25 mg/mL TA encoded by SEQ ID NO: 1 • 25 mM PPO • 0.2 mM pyridoxal phosphate • 250 mM isopropylamine (pHed to 8 w/H3PO4) • 100 mM Kphos buffer pH 8.0
The reaction was incubated at 25 to 30° C. for 30 hours with gentle shaking (250 rpm). At 0 hours, the amount of L-glufosinate as measured by HPLC was 0 mM, at 20 hours it was 14 mM, and at 30 hours it was 18 mM.

In the case of CP(=O)(O)CCC(=O)C(=O)O [PPO, 2-oxo-4-(hydroxy(methyl)phosphinoyl)butyric acid], the herbicidal activity (weeds) is listed as “can contribute herbicidal activity”.

B1: gabT: gabT transaminase from Escherichia coli (UniProt P22256; SEQ ID NO: 3) (protein, listed as Escherichia coli)
chain: MNSNKELMQRRSQAIPRGVGQIHPIFADRAENCRVWDVEGREYLDFAGGIAVLNTGHLHPKVVAAVEAQLKKLSHTCFQVLAYEPYLELCEIMNQKVPGDFAKKTLLVTTGSEAVENAVKIARAATKRSGTIAFSGAYHGRTHYTLALTGKVNPYSAGMGLMPGHVYRALYPCPLHGISEDDAIASIHRIFKNDAAPEDIAAIVIEPVQGEGGFYASSPAFMQRLRALCDEHGIMLIADEVQSGAGRTGTLFAMEQMGVAPDLTTFAKSIAGGFPLAGVTGRAEVMDAVAPGGLGGTYAGNPIACVAALEVLKVFEQENLLQKANDLGQKLKDGLLAIAEKHPEIGDVRGLGAMIAIELFEDGDHNKPDAKLTAEIVARARDKGLILLSCGPYYNVLRILVPLTIEDAQIRQGLEIISQCFDEAKQ
With B1 the “rate of L-glufosinate formation” value [1] was 0.4 mM/h.

B2: TA encoded by SEQ ID NO: 1: transaminase with the amino acid sequence of SEQ ID NO: 1 (protein, listed as Sinorhizobium arboris)
chain: MNIAAQSWERREATSFFHTFTDLPSLKTDGPVIIDHGEGPYIIDTVGRRYFEGNSGLWNMTLGFSERRLSDAALKQYQEFPGYHTFFGRNSKPTVELAERMLKLAPAPMSRVFFTNSGSEANESIVKLLWMMWAAEGRPERRKLLTRKNAYHGATVMASALTGKDYVKAFGLPGPEIVTLDCPHAWRFALPGEGDDEFAARLAANLETRILQEGPETIAGMFAEPVMGAGGVIVPPATYFAKIQPVLQRYGIPLIADEVICGFGRTGSLWGTLAVGQQPDIIVASKSMSAGYFPMGAVMLSADIDKRATAASEVWEEFPHGFTTGGHPVGCAISLEAIRIITEEGVFENVKSVSETFQSGLRALADHPMIGEARGMGLMGALETVADKKTKQSFSGDLRIGERISKEARDRGFIIRPLGSSVVLAPPFISTHGQIEELLAVLKEVLDVVYGTVKGEVA
modifications: Sinorhizobium arboris sp. nov.
With B2 the “amount of L-glufosinate formed (HPLC)” value ([2]; at 20 hours) was 14 mM and the “amount of L-glufosinate formed (HPLC)” value ([2]; at 30 hours) was 18 mM.
